Experimental data: patent US20060030015A1 (published 2006)
Positions count from the first letter of the chain named.

T1: OVA (UniProt P01012 2-386)
T1 sequence (looked up): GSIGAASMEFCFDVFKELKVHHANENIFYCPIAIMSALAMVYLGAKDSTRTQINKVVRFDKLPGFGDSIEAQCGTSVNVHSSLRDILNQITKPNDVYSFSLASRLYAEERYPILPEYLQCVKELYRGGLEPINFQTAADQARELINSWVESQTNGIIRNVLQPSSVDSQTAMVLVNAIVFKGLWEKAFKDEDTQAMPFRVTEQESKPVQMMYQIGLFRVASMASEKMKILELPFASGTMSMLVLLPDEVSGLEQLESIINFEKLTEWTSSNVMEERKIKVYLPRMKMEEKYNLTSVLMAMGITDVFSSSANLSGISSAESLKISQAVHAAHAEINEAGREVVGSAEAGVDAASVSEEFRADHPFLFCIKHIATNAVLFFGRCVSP

B1: monoclonal antibody ECL2B-3 (antibody, V domains shown)
VH: QIQLVQSGPELKKPGETVKISCKASGYTFTNYGMNWVKQAPGKGLEWMGWINTYTGEPTYAGDFMGRSVFSLETSASTAYLQINNLENKDTATYICARSGSPYAMDYWGQGTSVTVS
VL: DIALTQSPASLAVSLGQRATISCKASQSVDYDGDSYMNWFQQKPGQPPKLLIYAASNLESGIPGRFSGSGSGTDFTLNIHPVEEEDIATYYCQQSYEDPFTFGSGTILDIKR
B2: heavy chain of i41SL1-2 antibody (i41SL1-2-H) (protein)
VH: QVQLQHSGAELVRPGSSVKVSCKALGYTSTDYEIHWVKQTPVRGLEWIGAIHPGSDVIVYNQKFKGTATLTADKSSSTAYMELRSLTSEDSAVYYCTREGGSVDYVWGQGTLVTVSA
B3: light chain of ECL2B-2 (ECL2B-2-L) (protein)
VL: DVLMTQTPLSLPVSLGDQASISCRSSQSIVHSNGNTYLEWYLQKPGQSPKLLIYKVSNRFSGVPDRFSGSGSGTDFTLKINRVAAEDLGVYYCFQGSHVPWTFGGGTKLEIKRA
B4: light chain of ECL2B-4 (ECL2B-4-L) (protein)
VL: B3 VL with L51F, N81S, A84E, A85T
B5: monoclonal antibody ECL2B-2 (antibody, V domains shown)
VH: DVKLVESGGGLVKPGGSLKLSCAASGFTFSRYTMSWVRQTPEKRLEWVATISSGGSYTYYPDSVKGRFTISRDIAKNTLYLQMSSLKSEDTALYYCTREGGYGAFASWGQGTLVTVS
VL: DVLMTQTPLSLPVSLGDQASISCRSSQSIVHSNGNTYLEWYLQKPGQSPKLLIYKVSNRFSGVPDRFSGSGSGTDFTLKINRVAAEDLGVYYCFQGSHVPWTFGGGTKLEIKR
notes: also called intact monoclonal antibody ECL2B-2
B6: light chain of i41SL1-2 antibody (i41SL1-2-L) (protein)
VL: DIVMTQTQLTLTINIGQPASISCKSSQSLLDSDGKTYLNWLFQRPGQSPKRLIYLVSKLDSGVPDRFTGSGSGTDFTLKISRVEAEDLGVYYCWQGTHFPLTFGAGTKLELRRA

How the values were obtained:
OVA = biological target: T1, OVA; test: ELISA (immunoassay of Experiment 3-3), absorbance at 405 nm
Description: (§1) The blocking was applied with 2% gelatin at room temperature.

HSA = HSA (human, UniProt P02768 25-609); test: as above
Description: as §1

[1] = biological target: CDR1 antigen peptide (…), synthetic peptide of CDR 1 of the light chain of antibody 41S-2; test: cell-based or functional assay
[2] = biological target: ECL2B peptide (…), partial peptide of CCR-5 (human); test: cell-based or functional assay
[3] = biological target: ECL2B peptide (sequence No.38) as named in Experiment 3-9 (human); test: cell-based or functional assay
[4] = biological target: peptide TP41-1 of a retention region of gp41 (HIV-1) (…) (HIV-1); test: cell-based or functional assay

HSA, sequence (P02768 25-609): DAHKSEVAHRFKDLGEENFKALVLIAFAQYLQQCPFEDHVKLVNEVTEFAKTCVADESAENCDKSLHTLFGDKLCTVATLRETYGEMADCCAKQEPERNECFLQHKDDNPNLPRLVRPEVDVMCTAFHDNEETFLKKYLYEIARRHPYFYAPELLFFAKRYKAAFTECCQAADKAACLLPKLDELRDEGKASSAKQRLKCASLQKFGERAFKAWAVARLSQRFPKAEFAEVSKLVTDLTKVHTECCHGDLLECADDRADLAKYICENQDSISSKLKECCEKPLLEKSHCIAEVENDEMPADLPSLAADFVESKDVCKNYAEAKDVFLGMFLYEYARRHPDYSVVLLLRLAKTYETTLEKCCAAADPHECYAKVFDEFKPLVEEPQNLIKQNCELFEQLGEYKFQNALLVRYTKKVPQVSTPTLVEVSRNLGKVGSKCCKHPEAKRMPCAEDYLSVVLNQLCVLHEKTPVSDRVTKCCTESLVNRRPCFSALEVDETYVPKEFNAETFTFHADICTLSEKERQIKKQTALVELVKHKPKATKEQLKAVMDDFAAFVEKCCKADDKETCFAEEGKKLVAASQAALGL
ECL2B peptide (…), partial peptide of CCR-5 (human), sequence (peptide, as listed by the source): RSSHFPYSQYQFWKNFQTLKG

| Binder | binding result (OVA) | binding result (HSA) | Km [1] | kcat [1] | kcat/Km [1] | also measured |
| --- | --- | --- | --- | --- | --- | --- |
| B1 | no binding | no binding | – | – | – | – |
| B2 | – | – | 13 µM | 0.0103 s⁻¹ | 812 M⁻¹ s⁻¹ | – |
| B3 | – | – | – | – | – | time until the ECL2B peptide disappeared (RP-HPLC) [2]: 90 h |
| B4 | – | – | – | – | – | Km [3]: 35 µM; Vmax [3]: 0.31 µM/min; kcat [3]: 0.012 s⁻¹; kcat/Km [3]: 367 M⁻¹ s⁻¹; Km [4]: 12.5 µM; Vmax [4]: 0.0624 µM/min; kcat [4]: 0.00267 s⁻¹; kcat/Km [4]: 208 M⁻¹ s⁻¹ |
| B5 | no binding | no binding | – | – | – | – |
| B6 | – | – | 2 µM | 0.0102 s⁻¹ | 5170 M⁻¹ s⁻¹ | – |
